Consider eleven molecules from patent publication US20230126400A1 (Alector, published 2023).

Experiment [1] deals with T1, human MS4A6A ECL1 peptide (amino acid residues 68-85) (human).
T1 peptide: SASFSPNFTQVTSTLLNS
The experiment is described as follows: array SPR. On the procedure: (§1) Binding kinetic characterization of the anti-MS4A4A antibodies to MS4A4A ECL1 and ECL2 and to MS4A6A ECL1 and ECL2 peptides was performed by Carterra (South San Francisco, Calif.) using a proprietary array Surface Plasmon Resonance (SPR) instrument (MX-96) as follows. Antibodies were captured onto a CMD500D chip (Xantec # SPMX CMD500D) using the Continous Flow Microspotter (CFM). First, the chip was activated with 100 mM MES pH 5.5, 100 μL EDC (133 mM final), 100 μL of S-NHS (33.3 mM final), for 7 minutes. […] Anti-MS4A4A hydridoma supernatant or purified anti-MS4A4A antibodies were diluted in HBS-EP+ buffer (Teknova Cat # H8022) and then printed as duplicates with a 20 minute and a 5-minute print from the same sample solution.
(§2) These were then injected on the chip for five minutes, followed by a seven-minute dissociation period at 8 uL per second in a non-regenerative kinetic series. Duplicate measurements for each anti-MS4A4A antibody were taken to ensure reproducibility. Association rates (Kon) and dissociation rates (Koff) were calculated using a single one-to-one Langmuir binding model. The equilibrium dissociation constant (KD) was calculated as the ration of Koff/Kon.

In experiment [2] the target is T2, human MS4A6A ECL2 peptide (amino acid residues 138-185) (human).
T2 peptide: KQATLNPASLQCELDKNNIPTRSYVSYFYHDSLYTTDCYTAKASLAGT
The experiment is described as follows: array SPR. The method, then: as §1, §2

The target of experiment [3] is T3, human MS4A4A ECL1 peptide (amino acid residues 86-98) (human).
T3 construct: synthetic peptide
T3 peptide: CMASNTYGSNPIS
Put plainly: ELISA, hybridoma supernatant. The method, then:
(§3) Briefly, 96-well polystyrene plates were coated with 1-10 μg/ml of synthetic free or BSA-conjugated peptides in coating buffer (0.05M carbonate buffer, pH9.6, Millipore Sigma C3041) overnight at 4° C. Coated plates were then blocked with ELISA diluent (PBS+0.5% BSA+0.05% Tween20) for 1-hour, washed 3×300 μL in PBST (PBS+0.05% Tween20, Thermo Cat#28352), and then the antibodies were added to the plate ([…]). After 30 mins incubation (room temperature, with shaking), the plates were washed 3×300 μL in PBST. […] After a final set of washes (3×300 μL in PBST), 50 μL of TMB substrate (BioFx TMBW-1000-01) was added and the reaction was then quenched after 5-10 mins with 50 μL of stop solution (BioFx BSTP-1000-01). The quenched reaction wells were detected for absorbance at 650 nm with a BioTek Synergy Microplate Reader using GENS 2.04 software.

Another experiment concerns the target human MS4A4A (human, UniProt Q96JQ5 1-239). The experiment is described as follows: FACS, HEK293, supernatant. The method, then:
(§4) Positive clones identified above were expanded and then rescreened for specificity against HEK293 cells overexpressing human MS4A4A or cyno MS4A4A and parental HEK293 cells. These experiments were performed using supernatants from hybridoma clones which had undergone further expansion after initial selection. Briefly, previously prepared, cryopreserved transiently-transfected cells were labeled with LIVE/DEAD Fixable Aqua Dead Cell Stain Kit (ThermoFisher Scientific L34957) on ice for 30 minutes. After a wash with PBS, 2×10⁵ cells were aliquoted per well in 96-well U-bottom plates and incubated with 50 μl of culture supernatant on ice for 30 minutes. […] Following this secondary incubation, the cells were again washed twice with ice-cold FACS buffer and resuspended in a final volume of 200 μl of FACS buffer. Analysis was performed on a FACS Canto system (BD Biosciences), with sort gates drawn to exclude dead (Aqua-positive) cells. Positive clones (fold change of 1.8 or greater) were carried forward for further testing.
A general note: In flow cytometry, cells or beads pass a laser one at a time.

In another experiment the target is T4, cynomolgus (cyno) MS4A4A (cynomolgus).
T4 construct: also called cy4A; Cyno 4A
Put plainly: FACS, HEK293, supernatant. The method, then:
as §4

Experiment [4] deals with T5, BSA-conjugated human MS4A4A ECL2 peptide (amino acid residues 159-179) (human, conjugated to BSA (site not stated)).
T5 construct: also called MS4A4A-ECL2 BSA conjugated peptide; BSA-MS4A4A-ELC2 peptide
T5 peptide: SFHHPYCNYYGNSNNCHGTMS
Put plainly: ELISA, supernatant. The method, then: as §3
On the technique in general: An ELISA detects its analyte on a solid surface through an enzyme-linked reagent.

Positions count from the first letter of the chain named.

B1: anti-MS4A4A antibody 4A-10 (antibody, V domains shown)
VH: EVKLEESGGGLVQPGGSMKLSCAASGFTFSDAWMDWVRQSPEKGLEWVAEIRSKANDHATYYAESVKGRFTISRDDSKSSVYLQMNSLRAEDTGIYYCSVDYYGFFWGQGTLVTVSA
VL: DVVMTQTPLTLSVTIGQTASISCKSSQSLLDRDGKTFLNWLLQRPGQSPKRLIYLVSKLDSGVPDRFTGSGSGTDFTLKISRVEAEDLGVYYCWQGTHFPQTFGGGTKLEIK
notes: murine hybridoma antibody
As to B1, the binding result is reported as “no binding (tested: 2000 nM)” in experiment [1], “no binding (tested: 2000 nM)” in experiment [2] and “no binding” in experiment [3]. In addition, the “Human 4A:parental cell ratio” value with human MS4A4A turned out to be 6.55 ratio. Besides, the “Cyno 4A:parental cell ratio” value with cynomolgus (cyno) MS4A4A came out at 2.33 ratio.

B2: anti-MS4A4A antibody 4A-13 (antibody, V domains shown)
VH: B1 VH
VL: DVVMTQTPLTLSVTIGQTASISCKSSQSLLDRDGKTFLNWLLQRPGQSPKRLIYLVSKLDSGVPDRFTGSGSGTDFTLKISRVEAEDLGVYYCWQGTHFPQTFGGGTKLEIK
notes: murine hybridoma antibody; same VH and VL entries as 4A-10
As to B2, the binding result in experiment [1] is “no binding (tested: 2000 nM)”; in experiment [2] it was “no binding (tested: 2000 nM)”; in experiment [3], “no binding”. For the same molecule, in the experiment with human MS4A4A, the “Human 4A:parental cell ratio” value worked out at 43.8 ratio. Moreover, the “Cyno 4A:parental cell ratio” value with cynomolgus (cyno) MS4A4A was determined as 9.94 ratio.

B3: anti-MS4A4A antibody 4A-16 (antibody, V domains shown)
VH: B1 VH with L112M
VL: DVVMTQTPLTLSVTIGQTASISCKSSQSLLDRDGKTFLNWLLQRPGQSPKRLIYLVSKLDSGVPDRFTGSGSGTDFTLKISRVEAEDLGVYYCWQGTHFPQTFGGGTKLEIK
notes: murine hybridoma antibody
In the case of B3, the binding result in experiment [1] is on record as “no binding (tested: 2000 nM)”; in experiment [2] it was “no binding (tested: 2000 nM)”; in experiment [3], “no binding”; in experiment [4], “binds”. For the same molecule, the “Human 4A:parental cell ratio” value in the experiment with human MS4A4A came to 5.93 ratio. Moreover, the “Cyno 4A:parental cell ratio” value with cynomolgus (cyno) MS4A4A was 2.65 ratio.

B4: anti-MS4A4A antibody 4A-3 (antibody, V domains shown)
VH: QIQLVQSGPELKTPGETVKISCKSSGYTFTKYGMNWVKQAPGKGLKWMAWINTYTAEPTYGDDFKGRFALSLETSANTAYLQINNLKNEDTATYFCARSAELVRHYYALDYWGQGTSVTVSS
VL: DVLMTQTPLSLPVSLGDQASISCRSSQSLVHSNGNIYLEWFLQKPGQSLKILIYKVSNRFSGVPDRFSGSGSGTDFTLKISRVEADDLGVYYCSQGSHVPPTFGAGTKLELR
notes: murine hybridoma antibody
With B4, the binding result is “no binding (tested: 2000 nM)” in experiment [1], “no binding (tested: 2000 nM)” in experiment [2], “no binding” in experiment [3] and “binds” in experiment [4]. For the same molecule, in the experiment with human MS4A4A, the “Human 4A:parental cell ratio” value is 7.31 ratio. Further, in the experiment with cynomolgus (cyno) MS4A4A, the “Cyno 4A:parental cell ratio” value turned out to be 2.58 ratio.

B5: anti-MS4A4A antibody 4A-20 (antibody, V domains shown)
VH: EVQLQQSGPELVKPGASVKIPCKASGYTFTDYNMDWVKQSHGKSLDWIGDINPNNGYTIYNQKFKGKATLTVDKSSSTAYMELRRLTSEDTAVYYCARSTGPYFDYWGQGTTLTVSS
VL: DIQMTQSPASLSASVGETVTITCRASENIYSYLAWYQQKQGKSPQFLVYNGKTLAEGVPSRFSGCGSGTQFSLKINSLQPEDFGSYYCQHHYGIPRTFGGGTKLEIK
notes: murine hybridoma antibody
Turning to B5, the binding result in experiment [1] was “no binding (tested: 2000 nM)”; in experiment [2], “no binding (tested: 2000 nM)”; in experiment [3], “no binding”; in experiment [4], “binds”.

B6: anti-MS4A4A antibody 4A-11 (antibody, V domains shown)
VH: EVKLEESGGGLVQPGGSMKLSCAASGFTFSDAWMDWVRQSPEKGLEWVAEIRSKTDNHATYFAESVKGRFTISRDDSKSSVYLQMNSLRAGDTGIYYCYGSTFASWGQGTLVTVSS
VL: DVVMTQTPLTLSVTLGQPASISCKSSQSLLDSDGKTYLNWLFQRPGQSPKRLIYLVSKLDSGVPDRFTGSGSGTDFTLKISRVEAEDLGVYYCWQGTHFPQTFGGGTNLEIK
notes: murine hybridoma antibody
In the case of B6, the binding result in experiment [1] was “no binding (tested: 2000 nM)”; in experiment [2], “no binding (tested: 2000 nM)”; in experiment [3] it was “no binding”; in experiment [4], “binds”. In the experiment with human MS4A4A, the “Human 4A:parental cell ratio” value stood at 9.12 ratio. Moreover, the “Cyno 4A:parental cell ratio” value with cynomolgus (cyno) MS4A4A came out at 2.11 ratio.

B7: anti-MS4A4A antibody 4A-9 (antibody, V domains shown)
VH: DVQLQESGPGLVKPSQSLSLTCSVTGYSITSGYYWNWIRQFPGNKLEWMGYISYDGNNKYNPSLKNRISITRDTSKNQFFLKLNSVTTEDTATYYCANRDYWGQGTTLTVSS
VL: DVLMTQTPLSLPVSLGDQASISCRSSQNIVHSNGITYLEWFLQKPGQSPTLLIYKISNRFSGVPDRFSGSGSGTDFTLKISRVEAEDLGVYYCFQGSHVPYTFGGGTKLDIK
notes: murine hybridoma antibody
In the case of B7, the binding result is “no binding (tested: 2000 nM)” in experiment [1], “no binding (tested: 2000 nM)” in experiment [2], “no binding” in experiment [3] and “binds” in experiment [4]. In addition, the “Human 4A:parental cell ratio” value with human MS4A4A was determined as 8.2 ratio. Further, in the experiment with cynomolgus (cyno) MS4A4A, the “Cyno 4A:parental cell ratio” value came out at 3.46 ratio.

B8: anti-MS4A4A antibody 4A-4 (antibody, V domains shown)
VH: EIQLQQTGPDLVKPGTSVKISCKASGYSFTDYVLVWVKQSHGKSLEWIGNINPYYGNSDYNLKFEGKARLTVDRSSSTAYMQLNSLTSEDSAVYYCARYGLYAMDFWGQGTSVTVSS
VL: DVLMTQTPLSLPVSLGDQASISCRSSQTIVHSNGNSYLEWYLQKPGQSPKLLIYKVSNRFSGVPDRFSGSGSGTVFTLKISRVEAEDLGVYFCFQSSHVPLTFGVGTKLELK
notes: murine hybridoma antibody
Turning to B8, the binding result in experiment [1] is given as “no binding (tested: 2000 nM)”; in experiment [2], “no binding (tested: 2000 nM)”; in experiment [3], “no binding”; in experiment [4] it was “binds”. The “Human 4A:parental cell ratio” value with human MS4A4A was 4.78 ratio. The “Cyno 4A:parental cell ratio” value in the experiment with cynomolgus (cyno) MS4A4A was determined as 2 ratio.

B9: anti-MS4A4A antibody 4A-7 (antibody, V domains shown)
VH: EIQLQQTGPELVKPGASVKISCKASGYSFTDYVMIWVKQSHGKSLEWIGNINPYYGSTSYNLKFKGKATLTVDKSSSTAYMQLKSLTSEDSAVYYCARYGYDALDNWGQGTSVTVSS
VL: B8 VL with M4L, T28S, S36T, E39D, Y41S, K55R, V75D, F92Y, S96G, V105A
notes: murine hybridoma antibody
As for B9, the binding result in experiment [1] was “no binding (tested: 2000 nM)”; in experiment [2], “no binding (tested: 2000 nM)”; in experiment [3], “no binding”; in experiment [4], “binds”. In the experiment with human MS4A4A, the “Human 4A:parental cell ratio” value came out at 7.97 ratio. Also, the “Cyno 4A:parental cell ratio” value in the experiment with cynomolgus (cyno) MS4A4A was found to be 3.98 ratio.

B10: anti-MS4A4A antibody 4A-8 (antibody, V domains shown)
VH: EVKLVESGGGLVQPGGSLKLSCATSGFTFSDYYMYWVRQTPEKRLEWVAYINNGGGSTYYPDTVKGRFTISRDNAKNTLYLQMSRLKSEDTAMYYCARQGNLIYYSGSSLFAYWGQGTMVTVSS
VL: B7 VL with N28S, G34R, I35N, F41Y, L42V, T50K, I56V, Y101W, D110E
notes: murine hybridoma antibody
Consider B10, for which the binding result in experiment [1] is listed as “no binding (tested: 2000 nM)”; in experiment [2], “no binding (tested: 2000 nM)”; in experiment [3], “no binding”; in experiment [4] it was “binds”. Further, the “Human 4A:parental cell ratio” value with human MS4A4A was found to be 5.7 ratio. The “Cyno 4A:parental cell ratio” value with cynomolgus (cyno) MS4A4A worked out at 3.3 ratio.

B11: anti-MS4A4A antibody 4A-15 (antibody, V domains shown)
VH: EIQLQQTGPDLVKPGASVKISCKASGYSFTDYVILWVKQSHGKTLEWIGHINPYYANSDYNVNFRGKATLTVDKSSSTAHMQLNSLTSEDSAVYYCVRYGSGMDYWGQGTSVTVSS
VL: B8 VL with T28S, N33D, S36T, V75D, F92Y, S96G, V99F, V105A
notes: murine hybridoma antibody
On to B11, for which the binding result in experiment [1] is recorded as “no binding (tested: 2000 nM)”; in experiment [2], “no binding (tested: 2000 nM)”; in experiment [3] it was “no binding”; in experiment [4], “binds”. Also, the “Human 4A:parental cell ratio” value in the experiment with human MS4A4A worked out at 8.13 ratio. In addition, the “Cyno 4A:parental cell ratio” value with cynomolgus (cyno) MS4A4A worked out at 4.67 ratio.
